Measured values taken from US20250064934A1 (CENTURY THERAPEUTICS, published 2025).
Positions count from the first letter of the chain named. Each block holds one binder with its values, some of them ahead of it.

Experiments:
[1] = molecular target: T1, CD22 expressed on the cell surface (Raji, Daudi, CHO-CD22 and other CD22+ cells) (UniProt P20273 20-847, limits assumed); experiment: cell-based or functional assay
T1 construct: whole, on cells; also called CD22 positive Raji cells; CD22+ Raji cells
T1 sequence (looked up): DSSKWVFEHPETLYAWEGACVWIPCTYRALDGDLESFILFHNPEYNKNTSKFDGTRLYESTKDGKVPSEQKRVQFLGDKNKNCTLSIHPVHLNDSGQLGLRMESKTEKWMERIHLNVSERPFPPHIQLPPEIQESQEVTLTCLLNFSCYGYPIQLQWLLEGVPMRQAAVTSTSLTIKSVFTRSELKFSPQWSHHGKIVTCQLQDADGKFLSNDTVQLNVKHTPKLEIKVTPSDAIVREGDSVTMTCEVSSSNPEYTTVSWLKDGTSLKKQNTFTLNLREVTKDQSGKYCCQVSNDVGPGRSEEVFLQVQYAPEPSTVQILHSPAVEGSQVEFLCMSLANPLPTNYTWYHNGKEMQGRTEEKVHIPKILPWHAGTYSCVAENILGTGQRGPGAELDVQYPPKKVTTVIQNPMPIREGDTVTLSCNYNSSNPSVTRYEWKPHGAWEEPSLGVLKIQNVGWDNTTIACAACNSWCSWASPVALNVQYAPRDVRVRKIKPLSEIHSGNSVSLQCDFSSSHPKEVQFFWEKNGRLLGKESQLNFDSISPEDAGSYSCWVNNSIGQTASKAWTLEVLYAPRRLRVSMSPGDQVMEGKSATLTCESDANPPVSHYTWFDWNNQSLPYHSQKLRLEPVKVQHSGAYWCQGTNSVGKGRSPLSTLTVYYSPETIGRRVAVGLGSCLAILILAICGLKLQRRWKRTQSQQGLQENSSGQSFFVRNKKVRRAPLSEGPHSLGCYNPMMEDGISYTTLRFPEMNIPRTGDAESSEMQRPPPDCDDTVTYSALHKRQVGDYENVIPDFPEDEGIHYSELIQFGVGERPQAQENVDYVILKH

[2] = molecular target: T1, CD22 expressed on the cell surface …; experiment: flow cytometry on Raji cells, PE-labeled anti-human IgG Fc detection
Method: FIGS. 1A-C show results of VHH-Fc fusion proteins that were examined by flow cytometry for CD22 cellular binding in Raji cells. […] No binding was seen to Raji CD22 knock-out cells. B) PROT265 and PROT810 (an affinity matured variant of PROT265) bind to Raji cells, with PROT810 showing improved binding relative to PROT265.
(§1) VHH-Fc proteins were tested for binding to CD22 expressed on the cell surface. VHH-Fc proteins were serially diluted and added to Raji cells and incubated at 4 C for 30 minutes. Cells were washed once in BD staining buffer, BSA (BD Pharmingen), then PE-labeled anti-human IgG Fc (Jackson Immnoresearch) was added to detect VHH-Fc cell binding and incubated at 4 C for 30 minutes. Cells were washed once, then resuspended in staining buffer with 0.1% pluronic acid and run through a flow cytometer to detect the fluorescent labeling of the VHH-Fc cells.

[3] = molecular target: T2, monomeric CD22 (Acro Biosystems) (UniProt P20273 20-687); experiment: BLI (ForteBio Octet Red), VHH-Fc captured on anti-human IgG Fc sensor, monomeric CD22 at 250 nM
T2 construct: Bought protein; also called CD22 antigen; soluble CD22 protein
T2 sequence (looked up): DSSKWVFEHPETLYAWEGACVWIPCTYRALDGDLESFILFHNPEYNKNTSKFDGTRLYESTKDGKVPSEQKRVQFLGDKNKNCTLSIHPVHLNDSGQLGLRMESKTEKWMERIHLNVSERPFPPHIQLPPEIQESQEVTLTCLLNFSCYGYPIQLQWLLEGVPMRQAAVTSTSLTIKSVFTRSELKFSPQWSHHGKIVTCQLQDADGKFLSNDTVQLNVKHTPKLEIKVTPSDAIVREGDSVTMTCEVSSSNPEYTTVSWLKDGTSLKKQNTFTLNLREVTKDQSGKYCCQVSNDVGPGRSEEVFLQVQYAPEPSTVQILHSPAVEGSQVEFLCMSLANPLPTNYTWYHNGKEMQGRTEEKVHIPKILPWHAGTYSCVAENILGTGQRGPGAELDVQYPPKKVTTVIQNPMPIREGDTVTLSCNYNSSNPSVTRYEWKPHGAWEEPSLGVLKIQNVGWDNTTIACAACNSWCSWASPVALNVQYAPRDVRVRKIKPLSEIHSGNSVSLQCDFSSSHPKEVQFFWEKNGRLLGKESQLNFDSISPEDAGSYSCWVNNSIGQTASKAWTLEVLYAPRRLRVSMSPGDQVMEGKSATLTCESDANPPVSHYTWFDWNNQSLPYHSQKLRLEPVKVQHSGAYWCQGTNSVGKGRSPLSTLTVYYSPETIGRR
Method: (§2) VHH-Fc fusion proteins were assessed for affinity against monomeric CD22 (Acro Biosystems) using the ForteBio Octet Red BLI instrument. VHH-Fc proteins were captured onto an anti-human IgG Fc sensor at 50 nM. Sensor tips were quenched with human IgG Fc protein at 100 nM, then CD22 antigen was added at 250 nM to assess binding kinetics. Association was examined for 600 seconds and dissociation was examined for 600 seconds, allowing for calculation of Kon, Kdis and KD.

[4] = molecular target: T1, CD22 expressed on the cell surface …; experiment: flow cytometry on Raji cells, serially diluted VHH-Fc, detection with PE anti-human IgG Fc, % positive cells
Method: as §1

[5] = molecular target: T2, monomeric CD22 (Acro Biosystems); experiment: protein affinity of VHH-IgG1 Fc fusions (summary sentence, method not named there); before affinity maturation
Method: as §2

[6] = molecular target: T2, monomeric CD22 (Acro Biosystems); experiment: protein affinity of VHH-IgG1 Fc fusions (summary sentence, method not named there); after affinity maturation of CDR3
Method: as §2
(§3) The D04 clone was affinity matured by scanning mutagenesis of the CDRs and phage display selections for higher affinity clones. Variants were isolated and expressed as VHH-Fc fusions for affinity assessment.

[7] = molecular target: T2, monomeric CD22 (Acro Biosystems); experiment: BLI affinity assessment of VHH-Fc fusions
Method: as §2, §3

B1: tandem VHH CAR E04-D04_AM_D11 (P1738) (bispecific antibody, part only; not given: which CAR backbone was used, part only)
chain, part: EVQLLESGGGLVQPGGSLRLSCAASGFTSSSYVMGWYRQAPGKEREFVSSISTGGDAYYADSVKGRFTISRDNSKNTLYLQMNSLRAEDTAVYYCAADVWYYHGGAYDYWGQGTQVTVSSGSTSGSGKPGSGEGSTKGQVQLVESGGGLVQAGGSLRLSCAASGSEFTGYPMGWFRQAPGKEREFVAGSVGIGGSTNYADSVKGRFTISRDNAKNTVYLQMNSLKPEDTAVYYCAADKDYYKPYSRYRTAIRYDTWGQGTQVTVSS
Raji cell killing by CAR-T cells (flow cytometry, 48 hours) [1]: < 20%

EC50 [2]: ~2 nM
Kd [3]: 96.1 nM
koff [3]: 0.0102 s⁻¹
kon [3]: 106000 M⁻¹ s⁻¹
B2: PROT739 (A01) VHH-Fc fusion protein (Fc fusion)
chain: EVQLLESGGGLVQPGGSLRLSCAASGLTSYSYAMGWYRQAPGKEREFVSAISSGGSAYYADSVKGRFTISRDNSKNTLYLQMNSLRAEDTAVYYCAVGPYYGFRAVTEADYWGQGTQVTVSS
notes: VHH fused to the human IgG1 Fc domain; not shown: human IgG1 Fc domain

EC50 [2]: ~2 nM
Kd [3]: 23.3 nM
koff [3]: 0.000536 s⁻¹
kon [3]: 23000 M⁻¹ s⁻¹
B3: PROT740 (E04) VHH-Fc fusion protein (Fc fusion)
chain: EVQLLESGGGLVQPGGSLRLSCAASGFTSSSYVMGWYRQAPGKEREFVSSISTGGDAYYADSVKGRFTISRDNSKNTLYLQMNSLRAEDTAVYYCAADVWYYHGGAYDYWGQGTQVTVSS
notes: as for B2

EC50 (read off the curve) [4]: ~1 nM
Kd [5]: 30 nM
Kd [3]: 31.9 nM
koff [3]: 0.00257 s⁻¹
kon [3]: 80800 M⁻¹ s⁻¹
B4: PROT265 (D04) VHH-Fc fusion protein (Fc fusion)
chain: QVQLVESGGGLVQAGGSLRLSCAASGSEFTGYPMGWFRQAPGKEREFVAGSVGIGGSTNYADSVKGRFTISRDNAKNTVYLQMNSLKPEDTAVYYCAADKDYYKPYSRYRTVIRYETWGQGTQVTVSS
notes: also called CD22_D04; not shown: human IgG1 Fc domain

Kd [6]: 5 nM
fold improvement of affinity over the D04 clone [7]: 5 fold
Kd [3]: 6.97 nM
koff [3]: 0.000657 s⁻¹
kon [3]: 94300 M⁻¹ s⁻¹
B5: PROT810 (D04-AM-D11) VHH-Fc fusion protein (Fc fusion)
chain: B4 chain with V112A, E116D
notes: I took that entry to be D04-AM-D11 on the strength of the name; also called DO4-D11-CD22 VHH; not shown: human IgG1 Fc domain

B6: tandem VHH CAR D04_AM_D11-E04 (P1730) (bispecific antibody, part only; not given: which CAR backbone was used, part only)
chain, part: QVQLVESGGGLVQAGGSLRLSCAASGSEFTGYPMGWFRQAPGKEREFVAGSVGIGGSTNYADSVKGRFTISRDNAKNTVYLQMNSLKPEDTAVYYCAADKDYYKPYSRYRTAIRYDTWGQGTQVTVSSGSTSGSGKPGSGEGSTKGEVQLLESGGGLVQPGGSLRLSCAASGFTSSSYVMGWYRQAPGKEREFVSSISTGGDAYYADSVKGRFTISRDNSKNTLYLQMNSLRAEDTAVYYCAADVWYYHGGAYDYWGQGTQVTVSS
Raji cell killing by CAR-T cells (flow cytometry, 48 hours) [1]: 40%
